{"source": "patent US20110231942A1", "target": "Wnt3a", "assay": "cell-based or functional assay", "data": [{"substance": "Human Tiki2 (from UniProt A6NFA1 20-486) (enzyme)", "values": [{"measurement": "decrease in Wnt3a acylation (metabolic labeling with az-15 and 35S-Met/Cys, click chemistry with ALK-Rho on immunoprecipitated Wnt3a)", "value": 31, "unit": "%"}]}]}
